Laboratory results reported in patent publication US11124558B2, “Use of tetranectin and peptide agonists to treat inflammatory diseases” (The Feinstein Institutes for Medical Research, priority 2017, dated 2021).

Legend:
HMGB1 = target: T1, HMGB1 (Homo sapiens, UniProt P09429); assay: BIAcore surface plasmon resonance assay of HMGB1-TN interaction; conditions: TN immobilized on CM5 chip, HMGB1 as analyte; read-out: estimated (apparent) Kd of HMGB1 binding to TN
T1 sequence (P09429 1-215): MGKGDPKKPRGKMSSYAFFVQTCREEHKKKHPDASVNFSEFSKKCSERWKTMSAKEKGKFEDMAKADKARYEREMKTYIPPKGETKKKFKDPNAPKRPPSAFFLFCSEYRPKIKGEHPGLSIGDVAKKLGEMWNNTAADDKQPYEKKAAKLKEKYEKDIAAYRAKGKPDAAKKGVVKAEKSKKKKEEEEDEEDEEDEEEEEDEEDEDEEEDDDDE
Protocol: FIG. 11: BIAcore Surface Plasmon Resonance Assay of HMGB1-TN Interaction. Recombinant TN was immobilized on the sensor chip, and HMGB1 was applied as an analyte at different concentrations. The response units were recorded over time, and the binding affinity was estimated as the apparent Kd.
Effects of TN supplementation on the sepsis-induced coagulation. This laboratory has recently discovered that some pharmacological agents (e.g., tanshinones) inhibit HMGB1 release by facilitating its internalization into macrophage cytoplasmic vesicles via the clathrin- and caveolin-dependent endocytosis. Similarly, some endogenous proteins (e.g., haptoglobin) can also capture HMGB1 to enhance its cellular uptake through a CD163 receptor-mediated endocytosis. Thus it is determined whether TN can capture HMGB1 and enhance its internalization into macrophages/monocytes. The TN-HMGB1 interaction is investigated by employing the surface plasmon resonance (SPR) technology as previously described. Briefly, the highly purified recombinant TN or HMGB1 is covalently immobilized on a CM5 chip, and HMGB1 or TN is applied to the chip at various concentrations, before the SPR response will be monitored using a BIAcore system as previously described.

[1] = tested on: HMGB1 release, primary murine peritoneal macrophages; assay: LPS- or SAA-induced HMGB1 release in primary murine peritoneal macrophages (Western blotting); assay type: cell-based; conditions: for inhibition of LPS- or SAA-induced HMGB1 release: primary murine peritoneal macrophages, 16 h, serum-free OPTI-MEM I, TN from HEK293 or E. coli
Protocol: (§1) A, B, Primary murine peritoneal macrophages. C, Primary human peripheral blood mononuclear cells (HuPBMCs). Murine macrophages or human monocytes (HuPBMCs) were cultured in serum-free OPTI-MEM I medium, and stimulated with LPS or SAA for 16 h at the indicated concentrations. The extracellular HMGB1 levels were determined by Western blotting, and expressed as % of maximal stimulation by LPS or SAA alone.
(§2) Immune-modulating properties of tetranectin: To explore TN's immune-modulating properties, its effects on the LPS- and SAA-induced HMGB1 release were examined in murine macrophage and human monocyte cultures. […] This inhibition was TN-dose-dependent, evident at concentrations as low as 5.0 μg/ml, and became more dramatic (with 50-100% inhibition) at higher doses.
(§3) Effects of TN on the LPS-, IFN-γ-, or SAA-induced HMGB1 release. To elucidate the regulatory mechanisms of HMGB1 release, we will examine the impact of TN and its peptide agonists on the HMGB1 release induced by a wide array of inflammatory stimuli including the crude LPS [75], IFN-γ [76] and SAA [77], in macrophage and monocyte cultures. Primary peritoneal macrophages will be isolated from the Balb/C mice (both male and female, 7-8 weeks, 20-25 g) at 2-3 days after intraperitoneal injection of 2 ml thioglycollate broth (4%, Difco, Detroit, Mich.) as previously described. Human peripheral blood mononuclear cells (HuPBMCs) will be isolated from human blood obtained from the Long Island Blood Bank (NY) by density gradient centrifugation through Ficoll as previously described. At 80-90% confluence, macrophage/monocyte cultures will be stimulated with the crude LPS (Cat. No. L3012, Sigma-Aldrich), IFN-γ (Cat. No. 14777, Sigma-Aldrich), or SAA (Cat. No. 300-13, PeproTech) at different concentrations and for various time periods. The extracellular levels of HMGB1 in the culture medium will be determined by Western blotting as previously described.

[2] = tested on: HMGB1 release, human peripheral blood mononuclear cells (HuPBMCs); assay: LPS- or SAA-induced HMGB1 release in primary human peripheral blood mononuclear cells (Western blotting); assay type: cell-based; conditions: for inhibition of LPS- or SAA-induced HMGB1 release: HuPBMCs / human monocytes, 16 h, TN from HEK293 or E. coli
Protocol: as §1, §2, §3

[3] = tested on: circulating D-dimer, endotoxemic Balb/C mice; assay: Plasma D-dimer level in endotoxemic mice (ELISA); assay type: in vivo; conditions: 24 h post endotoxemia
Protocol: Venous blood was obtained from normal healthy and endotoxemic, Balb/C mice at 24 h post endotoxemia in the absence or presence of recombinant TN. The plasma level of fibrin degradation product (FDP's, e.g., D-dimer) was measured using commercial ELISA kit (Cat. No. EKU03631, Biomatik) as per the manufacturers' instructions. *, P<0.05 as compared to the positive control (+LPS alone).
In light of HMGB1's key role in the platelet activation/aggregation and its possible interaction with TN protein, the impact of TN or TN-specific peptide agonists on the pro-fibrinolytic activities is evaluated by measuring the plasma level of fibrin degradation products (FDP's, e.g., D-dimer) using commercial ELISA kits (Cat. No. EKU03631, Biomatik) as per the manufacturers' instructions. A parallel elevation of D-dimer levels is indicative of a possible acceleration of the fibrinolysis cascade by the TN treatment. However, a decrease in the D-dimer concentration is indicative of a reduction of either the plasmin-mediated fibrinolysis or the thrombin-mediated coagulation. […] Given the complex roles of fibrinolysis in sepsis, therapeutic agents that could control coagulation/fibrinolysis balance, while maintaining the host defense at the infectious foci, can be useful for understanding the complex pathogenesis of lethal systemic inflammatory diseases.

[4] = tested on: GRO/CXCL1 and ENA-78/CXCL5 secretion, HuPBMCs; assay: Cytokine/chemokine secretion by HuPBMCs (Cytokine Antibody Arrays); assay type: cell-based; conditions: primary human monocytes / HuPBMCs, TN 20 μg/ml, 16 h
Protocol: Human blood was purchased from the Long Island Blood Bank, and HuPBMCs were isolated by density gradient centrifugation through Ficoll, and stimulated with recombinant TN (20 μg/ml) expressed in HEK293 or E. coli for 16 h. The extracellular levels of cytokines and chemokines were determined by Cytokine Antibody Arrays.
In light of the protective roles of these neutrophil-attracting chemokines, CXCL1/KC [67,68] and CXCL5/ENA-78 [69,70] in LSI, it is important to determine whether TN could modulate leukocyte infiltration to facilitate potential pathogen elimination during sepsis.

HMGB1 release = assay: LPS/SAA-induced HMGB1 release, summary statement (cells not specified); assay type: cell-based
[5] = listed as recombinant human TN protein

B1: tetranectin (protein, listed as Homo sapiens)
chain: EPPTQKPKKIVNAKKDVVNTKMFEELKSRLDTLAQEVALLKEQQALQTVCLKGTKVHMKCFLAFTQTKTFHEASEDCISRGGTLGTPQTGSENDALYEYLRQSVGNEAEIWLGLNDMAAEGTWVDMTGARIAYKNWETEITAQPDGGKTENCAVLSGAANGKWFDKRCRDQLPYICQFGIV
HMGB1
  Kd: 0.57 µM
[1]; data not shown, cells not specified
  effect on LPS- or SAA-induced release of most other cytokines (G-CSF, IL-6, IL-12) and chemokines (KC, LIX, MIP-1α, MIP-2, RANTES): did not inhibit
[1]; murine macrophages
  lowest concentration at which inhibition of HMGB1 release was evident: 5.0 µg/mL
[1]
  inhibition of LPS- or SAA-induced HMGB1 release: dose-dependently inhibited
[1]; [5]
  inhibition of LPS- or SAA-induced HMGB1 release: capable of inhibiting
[2]
  inhibition of LPS- or SAA-induced HMGB1 release: dose-dependently inhibited
[2]; [5]
  inhibition of LPS- or SAA-induced HMGB1 release: capable of inhibiting
[2]; human monocytes
  lowest concentration at which inhibition of HMGB1 release was evident: 5.0 µg/mL
[2]; human monocytes, doses above 5.0 μg/ml
  inhibition of HMGB1 release at higher doses: 50-100%
[3]; P<0.05 vs +LPS alone
  effect on endotoxin-induced elevation of circulating D-dimer levels: significantly attenuated
[3]; at doses that conferred significant protection
  reduction of plasma D-dimer levels: 40-50%
[4]
  release of neutrophil-attracting chemokines (CXCL1/GRO-α/KC and CXCL5/ENA-78): induced the release
[4]; listed as Recombinant TN
  release of neutrophil-attracting chemokines (CXCL1/GRO-α/KC and CXCL5/ENA-78): specifically induced
[4]; listed as recombinant TN
  release of neutrophil-attracting chemokines (CXCL1/GRO-α/KC and CXCL5/ENA-78): specifically stimulated
HMGB1 release
  attenuation of LPS/SAA-induced HMGB1 release: dose-dependently attenuated
